From the DeepSol protein solubility set

test: soluble on expression in E. coli; label from the status in PepcDB or PDB records

Sequence | soluble on expression in E. coli
SSLCERAASGSALLWPRVLLFGDSITQFSFQQGGWGSLLADRLVRKCDVLNRGFSGYNTRWAKIILPRLIRKGPGMENPVAVTIFFGANDSSLKDENPKQHVPLDEYSANLRDMVQYLRSVDVPRERVILITPPPLCEAAWEKECVLKGCKLNRLNSVVGEYANACLQVARDCGTDVLDLWTLMQKDSQDFSSYLSDGLHLSPMGNEFLFLNLCPLLDKKVSSLPWLLPYWKDVEEAKPELSLLGDGDY | soluble
SSLLDGLASSPRAPLQSSKARMKKLPKKSQNEKYRLKYLRLRKAAKATVFENAAICDEIARLEEKFLKAKEERRYLLKKLLQLQALTEGEVQAAAPSHSSSLPLTYGVASSVGTIQGAGPISGPSTGAEEPFGKKTKKEKKEKGKENNKLEVLKKTCKKKKMAGGARKLVQPIALDPSGRPVFPIGLGGLTVYSLGEIITDRPGFHDESAIYPVGYCSTRIYASMKCPDQKCLYTCQIKDGGVQPQFEIVPEDDPQNAIVSSSADACHAELLRTISTTMGKLMPNLLPAGADFFGFSHPAIHNLIQSCPGARKCINYQWVKFDVCKPGDGQLPEGLPENDAAMSFEAFQRQIFDEDQNDPLLPGSLDLPELQPAAFVSSYQPMYLTHEPLVDTHLQHLKSPSQGSPIQSSD | soluble
SSLPLNAIEPCVICQGRPKNGCIVHGKTGHLMACFTCAKKLKKRNKPCPVCRQPIQMIVLTYFP | soluble
SSSIKVECVIKEKNEVGESPVWEEKDSSLLYVDITGQKVSRWSSLTKQIESMNTEKLVGCVVPRQAGGYVIAEGTRFAFVDWVKRSITAVAEVNEKPNTRFNDGKVDPAGRFFAGTMSMDMKPDVVDAALYNLQPDHSVVRHFDQVHLSNGLDWSLDHRVFYYIDSLAFMVEAFDYDIQTGGLSNRRTVYKMEKDEGIPDGMCIDTEGKLWVACFNGGRVLRIDPQTGKRLQTVKLPAERITSCCFGGKDYSDLYITSAYIGMDAEALAKQPEAGCTFKVTGLGVKGIPPYSYTG | soluble
STNNNPAPLLGFRIAHLLEQEPDTKDLTINVKTEILKHEFGPIKSSFSFSPHKFFEEDVKKQELYFFLIAVGIEEDDAKLMMTDMIFYVLGNIDELRGVLTLLLKVQFPSFEPIEEH | soluble
STRERLLSALEDLEVLSRELIEMLAISRNQKLLQAGEENQVLELLIHRDGEFQELMKLALNQGKIHHEMQVLEKEVEKRDSDIQQLQKQLKEAEQILATAVYQAKEKLKSIEKARKGAISSEEIIKYAHRISASNAVCAPLTWVPGDPRRPYPTDLEMRSGLLG | not soluble
STRFPGVAIYLVEPRMGRSRRAFLTGLARSKGFRVLDACSSEATHVVMEETSAEEAVSWQERRMAAAPPGCTPPALLDISWLTESLGAGQPVPVECRHRLEVAGPRKGPLSPAWMPAYAC | soluble
STSGTSVINDKVLQYETFISEVLRRDLQKVLEQRDAVYEKIAQYLQLKNTIQSIQGSGSKELKTDVDLGCNFYVQAHVPDASRIYVAVGYGFFVEFTHVEALKFIEKKTNQLTEYTEVLTKDAAKIKANIRMVLEGLRELQGLKDLPEDRRREVF | soluble
STSPLSDLLNLDLSDTKKIIAEYIWIGGSGMDIRSKARTLPGPVSNPTKLPKWNYDGSSTDQAAGDDSEVILYPQAIFKDPFRKGNNILVMCDAYRPAGDPIPTNNRHKAVKIFDHPNVKAEEPWFGIEQGYTLLKKDVKWPLGWPLGGFPGPQGPYYCAVGADKAFGRDIVDAHYKACLYSGLSIGGANGEVMPGQWEFQISPTVGIGAGGQLWVARYILERITEICGVIVSFDPKPIQGDWNGAAAHTNFSTKSMRKDGGLDLIKEAIKKLEVKHKQHIAAYGEGNERRLTGKHETADINTFSWGVADRGASVRVGRDTEKEGKGYFEDRRPSSNMDPYLVTSMIAETTIL | soluble
SVCAAQNCQRPCKDKVDWVQCDGGCDEWFHQVCVGVSPEMAENEDYICINCA | soluble
SVCLFALQIPHDEAQLLALLQQVVQSHPSFKIEVRRRDKLFACNSSAFKKYLALQLWEKYQLKGKLVDPAITVHVEVTKEHFLIISES | not soluble
